In patent US12723279B2, “Long stokes shift chromenoquinoline dyes and uses in sequencing applications” (priority 2020, dated 2026):

Legend:
Format in all cases: physicochemical
[1] = UV-Vis absorption of chromenoquinoline dye labeled ffA nucleotides
Procedure: (§1) The chromenoquinoline dye of Formula (I) (0.020 mmol) was coevaporated with 2×2 mL of anhydrous N,N′-dimethylformamide (DMF), then dissolved in 2 mL of anhydrous N,N′-dimethylacetamide (DMA). N,N-diisopropylethylamine (28.4 μL, 0.163 mmol) was added, followed by N,N,N′,N′-tetramethyl-O—(N-succinimidyl)uronium tetrafluoroborate as 0.1 M solution in anhydrous DMA (TSTU, 232 μL, 0.023 mmol). The reaction was stirred under nitrogen at RT for 30 minutes. In the meantime, an aqueous solution of the 2′-deoxyadenosine triphosphates-linker (0.01 mmol) was evaporated to dryness under reduced pressure and resuspended in 200 μL, of 0.1 M triethylammonium bicarbonate (TEAB) solution in water. The activated chromenoquinoline dye solution was added to the triphosphate and the reaction was stirred at RT for 18 hours. The crude product was purified firstly by ion-exchange chromatography on DEAE-Sephadex A25 (25 g). The fractions containing the triphosphate were pooled and the solvent was evaporated to dryness under reduced pressure. The crude material was further purified by preparative scale RP-HPLC using a YMC-Pack-Pro C18 column. The final compound was characterized by LC-MS, analytical RP-HPLC and UV-Vis spectroscopy.
(§2) In this example, the spectral properties of several fully functionalized A nucleotides (ffAs) conjugated with the chromenoquinoline dyes described herein were characterized. FIG. 1 illustrates the […] of ffA nucleotides conjugated with chromenoquinoline dyes I-1 through I-6 and I-8 as a 2 μM solution in Universal Scan Mix (USM, 1 M Tris pH 7.5, 0.05% TWEEN, 20 mM sodium ascorbate, 10 mM ethyl gallate). FIGS. 2A-2D show the fluorescence emission spectra of ffA nucleotide conjugated with chromenoquinoline dyes I-1 through I-6 and I-8 acquired using either 450 nm or 520 nm as excitation wavelengths in USM. The spectra were acquired on an Agilent Cary 100 UV-Vis Spectrophotometer and on a Cary Eclipse Fluorescence Spectrophotometer, using quartz or plastic cuvettes. It was observed that the chromenoquinoline dyes described herein can be excited under both blue and green light sources and also have strong fluorescent emission.

[2] = Fluorescence emission of chromenoquinoline dye labeled ffA nucleotides
Procedure: as §1, §2

[3] = Stability of dye labeled ffAs in aqueous solution at high pH (ethanolamine and glycine buffers, 45° C.); settings: 10 μM, dark, vs ffC labeled with coumarin reference dye A
Procedure: The stability of the compounds ffA-sPA-I-3 and ffA-sPA-I-4 in an aqueous solution at high pH was assessed by incubating a 10 μM solution of the given compound in two buffers: 1) 50 mM ethanolamine buffer, pH 9.6, 50 mM NaCl, 1 mM EDTA, 0.02% CHAPS, 4 mM MgSO4; 2) 50 mM glycine buffer, pH 9.8, 50 mM NaCl, 1 mM EDTA, 0.2% CHAPS, 4 mM MgSO4 at 45° C. in the dark for 6 days. At set time points, the UV-VIS absorption and fluorescence emission of the solutions were measured on an Agilent Cary 100 UV-Vis Spectrophotometer and on a Cary Eclipse Fluorescence Spectrophotometer, using quartz cuvettes. In addition, aliquots of the solutions were taken and analyzed by analytical HPLC. […] The coumarin reference dye A is disclosed in U.S. Publication No. 2018/0094140, having the structure moiety

[4] = 50 mM ethanolamine buffer pH 9.6, 45° C., 6 days (FIG. 3A)
[5] = 50 mM glycine buffer pH 9.8, 45° C., 6 days (FIG. 3B)

In the case of `C=CCOCOC1C[C@H](n2cc(/C=C/CNC(=O)COC(COc3cccc(C(=O)NCCCCCNC(=O)CCCN4CCCc5cc6c(cc54)OCc4cc5cc(OC)c(OC)cc5[n+](C)c4-6)c3)OCC=C)c3c(N)ncnc32)O[C@@H]1COP(=O)(O)OP(=O)(O)OP(=O)(O)O` (stereo partly shown) [ffA-(DB)-AOM-AOL-I-4], the “UV-VIS λmax” value [1] is reported as 500 nm and the “Fluorescence em. λmax” value [2] is reported as 578 nm.

With `C=CCOCOC1C[C@H](n2cc(C#CCNC(=O)COC(COc3cccc(C(=O)NCCCCCNC(=O)CCCN4CCCc5cc6c(cc54)OCc4cc5cc(OC)c(OC)cc5[n+](C)c4-6)c3)OCC=C)c3c(N)ncnc32)O[C@@H]1COP(=O)(O)OP(=O)(O)OP(=O)(O)O` (stereo partly shown) [ffA-AOM-AOL-I-4] the “UV-VIS λmax” value [1] was 500 nm and the “Fluorescence em. λmax” value [2] was 578 nm.

For `COc1ccc2c(c1)cc1c([n+]2C)-c2cc3c(cc2OC1)N(CCCC(=O)NCCNC(=O)c1cccc(OCC(N=[N+]=[N-])OCCOCC(=O)NCC#Cc2cn([C@H]4CC(OCN=[N+]=[N-])[C@@H](COP(=O)(O)OP(=O)(O)OP(=O)(O)O)O4)c4ncnc(N)c24)c1)CCC3` (stereo partly shown) [ffA-LN3-I-1], the “UV-VIS λmax” value [1] was 503 nm and the “Fluorescence em. λmax” value [2] was 590 nm.

In the case of `Cc1ccc2c(c1)cc1c([n+]2C)-c2cc3c(cc2OC1)N(CCCC(=O)NCCNC(=O)c1cccc(OCC(N=[N+]=[N-])OCCOCC(=O)NCC#Cc2cn([C@H]4CC(OCN=[N+]=[N-])[C@@H](COP(=O)(O)OP(=O)(O)OP(=O)(O)O)O4)c4ncnc(N)c24)c1)CCC3` (stereo partly shown) [ffA-LN3-I-2], the “UV-VIS λmax” value [1] is reported as 500 nm and the “Fluorescence em. λmax” value [2] is reported as 582 nm.

For `COc1ccc2c(c1)cc1c([n+]2C)-c2cc3c(cc2OC1)N(CCCC(=O)NCCNC(=O)c1cccc(OCC(N=[N+]=[N-])OCCOCC(=O)NCC#Cc2cn([C@H]4CC(OCN=[N+]=[N-])[C@@H](COP(=O)(O)OP(=O)(O)OP(=O)(O)O)O4)c4ncnc(N)c24)c1)C(C)(C)CC3C` (stereo partly shown) [ffA-LN3-I-5], the “UV-VIS λmax” value [1] was 501 nm and the “Fluorescence em. λmax” value [2] was 585 nm.

In the case of `CCN(CC)c1ccc2c(c1)OCc1cc3cc(CC(=O)NCCNC(=O)c4cccc(OCC(N=[N+]=[N-])OCCOCC(=O)NCC#Cc5cn([C@H]6CC(OCN=[N+]=[N-])[C@@H](COP(=O)(O)OP(=O)(O)OP(=O)(O)O)O6)c6ncnc(N)c56)c4)ccc3[n+](C)c1-2` (stereo partly shown) [ffA-LN3-I-6], the “UV-VIS λmax” value [1] is reported as 495 nm and the “Fluorescence em. λmax” value [2] is reported as 574 nm.

For `Cc1cc2cc3c([n+](C)c2cc1C)-c1cc2c(cc1OC3)N(CCCC(=O)NCCCCCNC(=O)c1cccc(OCC(N=[N+]=[N-])OCC(=O)NCC#Cc3cn([C@H]4CC(OCN=[N+]=[N-])[C@@H](COP(=O)(O)OP(=O)(O)OP(=O)(O)O)O4)c4ncnc(N)c34)c1)CCC2` (stereo partly shown) [ffA-sPA-LN3-I-3], the “UV-VIS λmax” value [1] was 500 nm, the “Fluorescence em. λmax” value [2] was 578 nm and the “fluorescence emission over time” value [3, 4] was “decreased very slowly over time”. For the same molecule, the “fluorescence emission over time” value [3, 5] was “decreased very slowly over time”.

In the case of `COc1cc2cc3c([n+](C)c2cc1OC)-c1cc2c(cc1OC3)N(CCCC(=O)NCCCCCNC(=O)c1cccc(OCC(N=[N+]=[N-])OCC(=O)NCC#Cc3cn([C@H]4CC(OCN=[N+]=[N-])[C@@H](COP(=O)(O)OP(=O)(O)OP(=O)(O)O)O4)c4ncnc(N)c34)c1)CCC2` (stereo partly shown) [ffA-sPA-LN3-I-4], the “UV-VIS λmax” value [1] is reported as 500 nm, the “Fluorescence em. λmax” value [2] is reported as 578 nm and the “fluorescence emission over time” value [3, 4] is reported as “decreased very slowly over time”. The “fluorescence emission over time” value [3, 5] was “decreased very slowly over time”.

In the case of `COc1cc2c(cc3c([n+]2C)-c2cc4c(cc2OC3)N(CCCC(=O)NCCCCCNC(=O)c2cccc(OCC(N=[N+]=[N-])OCC(=O)NCC#Cc3cn([C@H]5CC(OCN=[N+]=[N-])[C@@H](COP(=O)(O)OP(=O)(O)OP(=O)(O)O)O5)c5ncnc(N)c35)c2)CCC4)c(OC)c1OC` (stereo partly shown) [ffA-sPA-LN3-I-8], the “UV-VIS λmax” value [1] is reported as 500 nm and the “Fluorescence em. λmax” value [2] is reported as 583 nm.
